Assay results as given in US8461305B2, “L-fucose α1→6 specific lectin” (J-Oil Mills, Inc., priority 2008, dated 2013).

T1: Invertase (yeast) (Saccharomyces cerevisiae, UniProt P00724)
T1 sequence (P00724 20-532): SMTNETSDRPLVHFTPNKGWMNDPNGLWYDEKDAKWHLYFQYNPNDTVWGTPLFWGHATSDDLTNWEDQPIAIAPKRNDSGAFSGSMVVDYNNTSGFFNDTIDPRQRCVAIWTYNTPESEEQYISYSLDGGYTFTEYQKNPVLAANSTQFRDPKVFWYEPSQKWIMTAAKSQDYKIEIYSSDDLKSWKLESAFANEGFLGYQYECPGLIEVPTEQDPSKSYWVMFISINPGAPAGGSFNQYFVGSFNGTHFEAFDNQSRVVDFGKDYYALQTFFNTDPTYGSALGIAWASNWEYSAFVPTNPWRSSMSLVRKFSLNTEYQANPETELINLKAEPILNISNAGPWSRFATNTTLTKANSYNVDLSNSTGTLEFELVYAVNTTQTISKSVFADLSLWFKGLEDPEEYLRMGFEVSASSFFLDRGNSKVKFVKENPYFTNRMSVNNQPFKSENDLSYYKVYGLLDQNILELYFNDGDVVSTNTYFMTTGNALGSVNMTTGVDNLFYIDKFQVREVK


Assays:
Assay in all cases: detection of glycoproteins by ELISA with biotin-labeled lectin
Type in all cases: binding
Thyroglobulin (pig) = Thyroglobulin (pig) (Sus scrofa, UniProt F1RRV3); conditions: (1) Thyroglobulin (pig), N-linked glycan having α1→6 L-fucose; thyroglobulin value = 100%
Chain of Thyroglobulin (pig) (F1RRV3 20-2692): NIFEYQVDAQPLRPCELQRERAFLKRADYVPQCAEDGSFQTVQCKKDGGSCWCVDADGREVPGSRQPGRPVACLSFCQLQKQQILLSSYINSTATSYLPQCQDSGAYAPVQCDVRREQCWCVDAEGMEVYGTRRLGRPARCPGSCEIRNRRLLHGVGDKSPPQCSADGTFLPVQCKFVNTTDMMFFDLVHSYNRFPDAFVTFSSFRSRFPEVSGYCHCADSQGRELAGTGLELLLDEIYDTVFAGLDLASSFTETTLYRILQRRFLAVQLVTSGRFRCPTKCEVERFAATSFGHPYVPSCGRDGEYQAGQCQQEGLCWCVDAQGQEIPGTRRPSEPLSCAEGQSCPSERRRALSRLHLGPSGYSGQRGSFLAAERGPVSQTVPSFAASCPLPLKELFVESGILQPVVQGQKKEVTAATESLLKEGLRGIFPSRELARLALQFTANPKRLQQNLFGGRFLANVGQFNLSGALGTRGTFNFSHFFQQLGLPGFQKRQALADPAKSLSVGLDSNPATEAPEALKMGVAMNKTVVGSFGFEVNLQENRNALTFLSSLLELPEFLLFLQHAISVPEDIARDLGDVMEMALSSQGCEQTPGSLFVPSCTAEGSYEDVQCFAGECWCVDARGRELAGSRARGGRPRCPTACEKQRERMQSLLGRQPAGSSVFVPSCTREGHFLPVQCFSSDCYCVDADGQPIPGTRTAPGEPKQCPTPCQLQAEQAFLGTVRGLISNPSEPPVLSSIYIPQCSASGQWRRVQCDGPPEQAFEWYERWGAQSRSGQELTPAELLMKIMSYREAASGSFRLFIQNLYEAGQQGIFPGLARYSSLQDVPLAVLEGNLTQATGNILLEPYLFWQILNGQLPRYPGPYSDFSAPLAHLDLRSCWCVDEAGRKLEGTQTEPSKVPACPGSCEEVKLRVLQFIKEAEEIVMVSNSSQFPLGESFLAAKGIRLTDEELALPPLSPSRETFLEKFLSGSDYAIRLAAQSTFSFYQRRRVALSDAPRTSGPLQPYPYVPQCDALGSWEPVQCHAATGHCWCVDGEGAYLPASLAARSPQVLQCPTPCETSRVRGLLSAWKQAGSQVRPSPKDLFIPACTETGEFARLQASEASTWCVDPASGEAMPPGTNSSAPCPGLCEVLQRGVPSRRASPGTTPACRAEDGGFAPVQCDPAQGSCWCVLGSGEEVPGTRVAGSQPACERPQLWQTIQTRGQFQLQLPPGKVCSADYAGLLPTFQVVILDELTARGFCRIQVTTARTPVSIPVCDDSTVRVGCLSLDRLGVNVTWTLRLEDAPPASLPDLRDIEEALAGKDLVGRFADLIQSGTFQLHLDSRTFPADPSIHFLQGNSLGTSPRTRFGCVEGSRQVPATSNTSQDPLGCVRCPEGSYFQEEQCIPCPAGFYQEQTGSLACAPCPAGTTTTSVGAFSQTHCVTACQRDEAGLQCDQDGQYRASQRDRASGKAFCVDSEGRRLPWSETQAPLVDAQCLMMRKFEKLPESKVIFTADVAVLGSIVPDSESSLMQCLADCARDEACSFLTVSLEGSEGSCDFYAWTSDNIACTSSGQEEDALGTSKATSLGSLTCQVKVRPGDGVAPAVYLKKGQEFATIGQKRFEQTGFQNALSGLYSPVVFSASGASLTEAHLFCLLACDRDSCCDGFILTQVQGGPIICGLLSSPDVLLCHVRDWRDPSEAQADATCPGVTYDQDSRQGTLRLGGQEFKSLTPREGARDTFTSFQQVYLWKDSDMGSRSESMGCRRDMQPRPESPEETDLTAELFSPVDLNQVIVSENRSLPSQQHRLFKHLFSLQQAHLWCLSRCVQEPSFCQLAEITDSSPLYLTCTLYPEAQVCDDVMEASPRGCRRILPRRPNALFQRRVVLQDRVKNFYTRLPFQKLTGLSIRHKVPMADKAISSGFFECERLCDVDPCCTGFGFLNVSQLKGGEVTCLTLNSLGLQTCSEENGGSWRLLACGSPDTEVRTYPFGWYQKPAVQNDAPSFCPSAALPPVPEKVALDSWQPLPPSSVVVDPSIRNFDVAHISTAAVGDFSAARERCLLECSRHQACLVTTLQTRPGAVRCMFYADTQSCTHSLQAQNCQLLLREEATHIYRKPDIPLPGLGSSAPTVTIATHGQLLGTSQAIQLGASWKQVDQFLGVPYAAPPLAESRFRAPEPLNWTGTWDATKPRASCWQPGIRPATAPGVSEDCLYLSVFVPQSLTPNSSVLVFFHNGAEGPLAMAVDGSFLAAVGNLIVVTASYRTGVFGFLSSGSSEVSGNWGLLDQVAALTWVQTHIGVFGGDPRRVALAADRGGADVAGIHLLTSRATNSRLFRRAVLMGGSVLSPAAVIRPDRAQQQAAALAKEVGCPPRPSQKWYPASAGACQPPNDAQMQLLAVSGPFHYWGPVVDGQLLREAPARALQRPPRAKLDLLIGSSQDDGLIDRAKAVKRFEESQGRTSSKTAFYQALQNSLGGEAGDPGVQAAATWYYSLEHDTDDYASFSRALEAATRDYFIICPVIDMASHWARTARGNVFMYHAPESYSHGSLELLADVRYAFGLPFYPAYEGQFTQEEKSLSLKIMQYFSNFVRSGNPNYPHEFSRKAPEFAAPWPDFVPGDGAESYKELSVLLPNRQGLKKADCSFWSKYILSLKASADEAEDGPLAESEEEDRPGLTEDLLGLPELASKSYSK
Protocol: (§1) PTL of Example 1, SRL of Example 2, AAL of Comparison Example 1, AOL of Comparison Example 2, and LCA of Comparison Example 3 that were biotin-labeled were used to the detection of glycoproteins by the enzyme-linked immunosorbent assay (ELISA).
(§2) The glycoprotein and albumin as protein not including a sugar chain as a control were dissolved in 0.1 M carbonic acid buffer solution (pH 9.5) at 1 mg/ml. Then, the resultant solution was added to a microtiter plate (Nunc 439454) and was incubated at 4 degrees C. overnight. Then, the resultant solution was cleaned by 0.05% Tween/PBS three times. Thereafter, 1% BSA/PBS was added to wells and the solution was incubated at 37 degrees C. for one hour. Then, after the solution was cleaned by 0.05% Tween/PBS three times, biotin labeled-lectin appropriately diluted by 1% BSA/0.05% Tween/PBS was added to the wells and the solution was incubated at 37 degrees C. for one hour. After the solution was cleaned by 0.05% Tween/PBS three times, HRP labeled streptavidin solution diluted by 1% BSA/0.05% Tween/PBS was added to wells and the solution was incubated at 37 degrees C. for 30 minutes. After the solution was cleaned by 0.05% Tween/PBS three times, TMB Peroxidase substrate system (KPL) was added and the resultant solution was incubated at a room temperature for 10 minutes while light was being blocked.
(§3) The reaction was stopped by 1 M phosphoric acid. Then, a microplate reader (MPR-A4i, TOSOH CORPORATION) was used to measure the absorbance at 450 nm. Based on this value, reaction value ([absorbance at 450 nm of a well for which glycoprotein was solid-phased to the plate and reacted]−[absorbance at 450 nm of a well for which glycoprotein was not solid-phased to the plate and reacted] was calculated. Next, for each lectin, the interaction strength (relative value) to each glycoprotein was calculated based on an assumption that the glycoprotein (thyroglobulin) value was 100%. The calculation result is shown in Table 9 and FIG. 19 to FIG. 23.

[1] = target: Blood serum albumin (bovine) (Bos taurus, UniProt P02769); conditions: (0) Blood serum albumin (bovine), No sugar chain; thyroglobulin value = 100%
Chain of Blood serum albumin (bovine) (P02769 25-607): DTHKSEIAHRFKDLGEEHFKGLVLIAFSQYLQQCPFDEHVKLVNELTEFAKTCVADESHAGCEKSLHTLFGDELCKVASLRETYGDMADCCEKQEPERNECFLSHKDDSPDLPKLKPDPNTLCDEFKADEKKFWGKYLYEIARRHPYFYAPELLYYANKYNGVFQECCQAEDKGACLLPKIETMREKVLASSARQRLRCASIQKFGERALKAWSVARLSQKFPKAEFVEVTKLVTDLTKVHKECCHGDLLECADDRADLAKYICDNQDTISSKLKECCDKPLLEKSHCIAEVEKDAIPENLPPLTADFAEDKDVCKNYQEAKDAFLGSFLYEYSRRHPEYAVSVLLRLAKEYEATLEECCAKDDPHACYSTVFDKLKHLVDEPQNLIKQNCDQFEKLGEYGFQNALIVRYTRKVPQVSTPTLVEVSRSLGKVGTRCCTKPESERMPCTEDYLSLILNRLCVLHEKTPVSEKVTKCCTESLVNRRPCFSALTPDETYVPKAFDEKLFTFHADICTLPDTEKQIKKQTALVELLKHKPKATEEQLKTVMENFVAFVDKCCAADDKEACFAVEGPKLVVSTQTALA
Protocol: as §1, §2, §3

[2] = tested on: α1-acidic glycoprotein (human); conditions: (5) α1-acidic glycoprotein (human), N-linked glycan having α1→3 L-fucose; thyroglobulin value = 100%
Protocol: as §1, §2, §3

Lactoferrin (human) = Lactoferrin (human) (Homo sapiens, UniProt P02788); conditions: (2) Lactoferrin (human), N-linked glycan chain having α1→6 L-fucose; thyroglobulin value = 100%
Chain of Lactoferrin (human) (P02788 20-710): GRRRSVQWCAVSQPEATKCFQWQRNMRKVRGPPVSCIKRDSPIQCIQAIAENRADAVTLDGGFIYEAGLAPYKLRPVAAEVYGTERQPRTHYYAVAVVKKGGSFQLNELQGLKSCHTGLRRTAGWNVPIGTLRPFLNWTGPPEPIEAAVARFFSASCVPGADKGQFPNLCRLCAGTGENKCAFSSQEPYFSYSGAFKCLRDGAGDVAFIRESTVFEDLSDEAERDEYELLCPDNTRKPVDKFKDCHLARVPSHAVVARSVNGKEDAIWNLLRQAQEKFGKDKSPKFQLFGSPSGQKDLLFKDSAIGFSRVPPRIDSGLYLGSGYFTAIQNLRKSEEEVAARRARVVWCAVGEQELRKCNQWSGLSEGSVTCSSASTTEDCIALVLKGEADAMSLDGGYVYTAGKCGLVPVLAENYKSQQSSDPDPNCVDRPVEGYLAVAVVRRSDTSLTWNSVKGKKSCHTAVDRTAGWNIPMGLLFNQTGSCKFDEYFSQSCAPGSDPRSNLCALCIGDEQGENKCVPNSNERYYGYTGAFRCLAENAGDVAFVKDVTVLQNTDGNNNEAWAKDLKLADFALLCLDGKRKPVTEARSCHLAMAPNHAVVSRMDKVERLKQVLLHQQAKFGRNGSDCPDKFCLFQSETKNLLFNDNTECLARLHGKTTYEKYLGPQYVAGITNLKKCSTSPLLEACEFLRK
Protocol: as §1, §2, §3

Mucin (pig) = conditions: (7) Mucin (pig), O-linked glycan including L-fucose; thyroglobulin value = 100%
Protocol: as §1, §2, §3

[3] = tested on: Immune-globulin G (human); conditions: (3) Immune-globulin G (human), N-linked glycan having α1→6 L-fucose; thyroglobulin value = 100%
Protocol: as §1, §2, §3

Transferrin (human) = Transferrin (human) (Homo sapiens, UniProt P02787); conditions: (4) Transferrin (human), N-linked glycan not including α1→6 L-fucose; thyroglobulin value = 100%
Chain of Transferrin (human) (P02787 20-698): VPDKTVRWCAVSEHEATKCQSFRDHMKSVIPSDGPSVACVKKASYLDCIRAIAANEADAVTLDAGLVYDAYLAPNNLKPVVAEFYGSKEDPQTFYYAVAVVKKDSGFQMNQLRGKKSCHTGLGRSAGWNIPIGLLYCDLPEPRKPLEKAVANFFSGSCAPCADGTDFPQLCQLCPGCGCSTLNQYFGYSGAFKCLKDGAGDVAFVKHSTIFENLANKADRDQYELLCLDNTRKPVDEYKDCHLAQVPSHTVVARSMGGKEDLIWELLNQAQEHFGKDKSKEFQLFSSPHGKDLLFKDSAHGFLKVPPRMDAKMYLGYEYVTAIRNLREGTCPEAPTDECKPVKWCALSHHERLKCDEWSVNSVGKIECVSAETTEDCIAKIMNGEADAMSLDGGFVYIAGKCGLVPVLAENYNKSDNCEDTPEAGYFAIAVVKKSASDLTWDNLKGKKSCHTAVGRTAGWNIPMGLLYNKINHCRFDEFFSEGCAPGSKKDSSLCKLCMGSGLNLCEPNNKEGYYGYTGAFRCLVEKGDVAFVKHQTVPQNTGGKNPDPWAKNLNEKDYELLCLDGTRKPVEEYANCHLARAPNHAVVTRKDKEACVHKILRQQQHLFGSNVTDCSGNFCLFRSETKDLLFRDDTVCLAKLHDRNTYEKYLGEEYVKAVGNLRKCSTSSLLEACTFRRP
Protocol: as §1, §2, §3

Invertase (yeast) = target: T1, Invertase (yeast); conditions: (6) Invertase (yeast), High mannose-type glycan; thyroglobulin value = 100%
Protocol: as §1, §2, §3

Mucin (bovine) = conditions: (8) Mucin (bovine), O-linked glycan including L-fucose; thyroglobulin value = 100%
Protocol: as §1, §2, §3

| Molecule | interaction strength (relative value) by ELISA (Thyroglobulin (pig)) | interaction strength (relative value) by ELISA [1] | interaction strength (relative value) by ELISA [2] | interaction strength (relative value) by ELISA (Lactoferrin (human)) | interaction strength (relative value) by ELISA (Mucin (pig)) | interaction strength (relative value) by ELISA [3] | interaction strength (relative value) by ELISA (Transferrin (human)) | interaction strength (relative value) by ELISA (Invertase (yeast)) | interaction strength (relative value) by ELISA (Mucin (bovine)) |
| --- | --- | --- | --- | --- | --- | --- | --- | --- | --- |
| Pholiota terrestris lectin [PTL, novel L-fucose α1→6 specific lectin purified from the mushroom Pholiota terrestris] | ⊚ (Relative values of 120 to 80) | X (Relative values of 10 or less) | X (Relative values of 10 or less) | ⊚ (Relative values of 120 to 80) | X (Relative values of 10 or less) | ⊚ (Relative values of 120 to 80) | X (Relative values of 10 or less) | X (Relative values of 10 or less) | X (Relative values of 10 or less) |
| Stropharia rugosoannulata lectin [SRL, novel L-fucose α1→6 specific lectin purified from the mushroom Stropharia rugosoannulata] | ⊚ (Relative values of 120 to 80) | X (Relative values of 10 or less) | X (Relative values of 10 or less) | ◯ (Relative values of 80 to 50) | X (Relative values of 10 or less) | ◯ (Relative values of 80 to 50) | X (Relative values of 10 or less) | X (Relative values of 10 or less) | X (Relative values of 10 or less) |
| Aspergillus oryzae lectin [AOL, reference compound] | ⊚ (Relative values of 120 to 80) | X (Relative values of 10 or less) | Δ (Relative values of 50 to 10) | ◯ (Relative values of 80 to 50) | ⊚ (Relative values of 120 to 80) | Δ (Relative values of 50 to 10) | X (Relative values of 10 or less) | X (Relative values of 10 or less) | ⊚ (Relative values of 120 to 80) |
| Aleuria aurantia lectin (protein) PTEFLYTSKIAAISWAATGGRQQRVYFQDLNGKIREAQRGGDNPWTGGSSQNVIGEAKLFSPLAAVTWKSAQGIQIRVYCVNKDNILSEFVYDGSKWITGQLGSVGVKVGSNSKLAALQWGGSESAPPNIRVYYQKSNGSGSSIHEYVWSGKWTAGASFGSTVPGTGIGATAIGPGRLRIYYQATDNKIREHCWDSNSWYVGGFSASASAGVSIAAISWGSTPNIRVYWQKGREELYEAAYGGSWNTPGQIKDASRPTPSLPDTFIAANSSGNIDISVFFQASGVSLQQWQWISGKGWSIGAVVPTGTPAGW | ⊚ (Relative values of 120 to 80) | X (Relative values of 10 or less) | Δ (Relative values of 50 to 10) | ◯ (Relative values of 80 to 50) | ⊚ (Relative values of 120 to 80) | Δ (Relative values of 50 to 10) | X (Relative values of 10 or less) | X (Relative values of 10 or less) | ⊚ (Relative values of 120 to 80) |
| Lens culinaris agglutinin (protein) chain 1: TETTSFSITKFSPDQKNLIFQGDGYTTKGKLTLTKAVKSTVGRALYSTPIHIWDRDTGNVANFVTSFTFVIDAPSSYNVADEFTFFIAPVDTKPQTGGGYLGVFNSKEYDKTSQTVAVEFDTFYNAAWDPSNKERHIGIDVNSIKSVNTKSWNLQNGERANVVIAFNAATNVLTVTLTYP chain 2: VTSYTLNEVVPLKDVVPEWVRIGFSATTGAEFAAHEVHSWSFHSELGGTSSS | ⊚ (Relative values of 120 to 80) | X (Relative values of 10 or less) | X (Relative values of 10 or less) | ◯ (Relative values of 80 to 50) | X (Relative values of 10 or less) | ◯ (Relative values of 80 to 50) | X (Relative values of 10 or less) | X (Relative values of 10 or less) | X (Relative values of 10 or less) |
